{"source": "patent US20240279645A1", "about": "“METHODS AND CO[…] TO A MODIFIED METHYLTRANSFERASE” (priority 2021, published 2024)", "key": {"[1]": {"test_system": "THP sensor (THP4.2)", "assay": "Response of the THP reporter plasmid (pThpR) to alkaloids", "type": "cell-based", "conditions": "pThpR reporter fluorescence (FIG. 2b)"}, "[2]": {"assay": "pThpR reporter fluorescence of cells expressing a methyltransferase cultured with norlaudanosoline", "type": "cell-based, E. coli", "conditions": "cultured with norlaudanosoline (100 uM, 1 mg/mL ascorbic acid, 18 hours, 30° C., FIG. 3)", "method": "Cells expressing either an empty plasmid (TAA) or a BIA methyltransferase were co-transformed with pThpR and grown in the presence of 100 uM of norlaudanosoline and 1 mg/mL ascorbic acid for 18 hours at 30° C. and culture fluorescence was subsequently measured. Measurements were performed in biological triplicate.\n(a) Genetic scheme for O-methyltransferase (OMT) evolution. A plasmid expressing the OMT variant (blue) is co-transformed with a plasmid expressing GFP regulated by a tetrahydropapaverine-responsive biosensor (THP4.1). OMT libraries are plated with norlaudanosoline (NOR) and highly fluorescent colonies are picked, characterized, and the top variant is used for the following round of evolution. (b) Homology structure of the template OMT (GfOMT1) with mutations in evolved variants shown in orange and labelled. The substrate NOR and cofactor S-adenosyl-methionine are shown in pink and green respectively. (c) Fluorescence response of the THP4.1 reporter plasmid cultured with either 0, 10, or 100 uM of (NOR) and an empty plasmid (TAA), GfOMT1 (WT) or evolved OMT variants. (d) Representative ion extracted chromatograms of strains expressing engineered OMT variants, or controls, grown in the presence of 10 uM NOR. All LC-MS chromatograms were selected for the theoretical m/z values and retention times of the respective compounds of interest. […]"}, "[3]": {"assay": "LC/MS analysis of enzymatic reactions of OMT variants with norlaudanosoline (extracted ion chromatogram areas)", "type": "cell-based, E. coli", "conditions": "for Observed EIC Areas 3OH (302.1387 m/z): 6-O-Methylnorlaudanosoline, retention time 2.85 min; for Observed EIC Areas 3OH (302.1387 m/z) / Observed EIC Areas 1OH (330.1700 m/z) / Observed EIC Areas NOR-4OH (288.1230 m/z) / Observed EIC Areas NRT-2OH (316.1543 m/z) / Observed EIC Areas THP-0OH (344.1856 m/z): strains grown in the presence of 10 uM NOR, single replicates of a biological triplicate; for Observed EIC Areas 1OH (330.1700 m/z): norlaudanine, retention time 3.41 min; for Observed EIC Areas NOR-4OH (288.1230 m/z): norlaudanosoline, retention time 2.46 min; for Observed EIC Areas NRT-2OH (316.1543 m/z): norreticuline, retention time 3.14 min; for Observed EIC Areas THP-0OH (344.1856 m/z): tetrahydropapaverine, retention time 3.58 min", "method": "(a) Genetic scheme for O-methyltransferase (OMT) evolution. A plasmid expressing the OMT variant (blue) is co-transformed with a plasmid expressing GFP regulated by a tetrahydropapaverine-responsive biosensor (THP4.1). OMT libraries are plated with norlaudanosoline (NOR) and highly fluorescent colonies are picked, characterized, and the top variant is used for the following round of evolution. (b) Homology structure of the template OMT (GfOMT1) with mutations in evolved variants shown in orange and labelled. The substrate NOR and cofactor S-adenosyl-methionine are shown in pink and green respectively. (c) Fluorescence response of the THP4.1 reporter plasmid cultured with either 0, 10, or 100 uM of (NOR) and an empty plasmid (TAA), GfOMT1 (WT) or evolved OMT variants. (d) Representative ion extracted chromatograms of strains expressing engineered OMT variants, or controls, grown in the presence of 10 uM NOR. All LC-MS chromatograms were selected for the theoretical m/z values and retention times of the respective compounds of interest.\nCells expressing an empty plasmid (TAA) or an OMT variant were cultured in the presence of 10 uM NOR and 1 mg/mL ascorbic acid for 18 hours at 30 C and THP was quantified with LC/MS by fitting to a standard curve (R2=0.9999). Measurements were performed in biological triplicate. […]\nThe top two rows indicate the ml/z ratio and retention time for compounds of interest (norlaudanosoline (NOR-4OH), 6-O-Methylnorlaudanosoline (3OH), norreticuline (NRT-2OH), norlaudanine (1OH), and tetrahydropapaverine (THP-0OH). All sample measurements were performed in biological triplicate."}}, "note": "Values joined by “and” are separate entries in the source; they are usually repeats but may differ in a detail not shown here. Equal values may be shown once."}
{"molecule": "COc1ccc(C[C@@H]2NCCc3cc(OC)c(O)cc32)cc1O", "note": "[norreticuline]", "values": [{"measurement": "responsiveness of the THP sensor to the alkaloid", "setting": "[1]", "value": "somewhat responsive"}]}
{"molecule": "Oc1ccc(CC2NCCc3cc(O)c(O)cc32)cc1O", "note": "(stereo not drawn) [unmethylated substrate, norlaudanosoline]", "values": [{"measurement": "responsiveness of the THP sensor to the alkaloid", "setting": "[1]", "value": "not"}]}
{"molecule": "WT: wild-type O-methyltransferase GfOMT1 from Glaucium flavum, template for evolution (protein) MGVSDNKPESQEVDIKAQAHLWNIIYGFADSLVLRCAVEIGIADIIKSNNGSISVTELASKLPITNVNSDNLYRVLRYLVHMGILKEVSDSNEVKLYSLQPVATLLLRDAERSMVPIILGMTQKDFMIPWHFMKEGLGNDTTAFEKGMGMTIWQYLEGHPEQSNLFNEGMAGETRLLTKSLIDGCRDTFEGLTSLCDVGGGNGTTIKGIYDAFPQIKCSVYDLPHVIASSPEHPNIERIPGDMFKSVPSAQAILLKLILHDWTDEECVNILIKCREAVPKDTGKVIIVDVALEEESQHELTKTRLILDIDMLVNTGGRERSEDDWEKLLKRAGFRGHKIRHIAAIQSVIEAFP", "values": [{"measurement": "fluorescent signal in E. coli bearing pThpR, panel of methyltransferases", "setting": "[2]", "value": "produced the highest fluorescent signal"}, {"measurement": "Observed EIC Areas 3OH (302.1387 m/z)", "setting": "[3]", "value": "838,007.19 and 678,233.01 and 956,624.78"}, {"measurement": "Observed EIC Areas 1OH (330.1700 m/z)", "setting": "[3]", "value": 0.00}, {"measurement": "Observed EIC Areas NOR-4OH (288.1230 m/z)", "setting": "[3]", "value": "292,886.91 and 183,019.07 and 553,463.54"}, {"measurement": "Observed EIC Areas NRT-2OH (316.1543 m/z)", "setting": "[3]", "value": "5,016,094.31 and 4,455,448.19 and 5,512,157.20"}, {"measurement": "Observed EIC Areas THP-0OH (344.1856 m/z)", "setting": "[3]", "value": "715,848.03 and 726,021.76 and 724,935.11"}]}
{"molecule": "Gen4: evolved GfOMT1 O-methyltransferase variant, fourth round of evolution (protein) MGVSDNKPESQEVDIKAQAHLLNIIYGFADSLVLRCAVEIGIADIIKSNNGSISVTELASKLPITNVNSDNLYRVLRYLVHMGILKEVSDSNEVKLYSLQPVATLLLRDAERSMVPIILGMTQKDFMIPWHFMKEGLGNDTTAFERGMGMTIWQYLEGHPEQSNLFNEGMAGETRLMAKSLIDGCRDTFEGLTSLCDVGGGNGTTIKGIYDAFPQIKCSVYDLPHVIASSPEHPNIERIPGDMFKSVPSAQAILLKLVLHDWTDEECVNILIKCREAVPKDTGKVIIVDVALEEESQHELTKTRLILDIDMLVNTGGRERSEDDWEKLLKRAGFRGHKIRHIAAIQSVIEAFP", "values": [{"measurement": "Observed EIC Areas 3OH (302.1387 m/z)", "setting": "[3]", "value": 0.00}, {"measurement": "THP production, selectivity and efficiency", "setting": "[3]; LC/MS, 10 uM NOR, 18 hours at 30 C (FIG. 4d, FIG. 7)", "value": "produced THP more selectively and efficiently than GEN5"}, {"measurement": "Observed EIC Areas 1OH (330.1700 m/z)", "setting": "[3]", "value": "1,994,412.63 and 1,353,523.79 and 2,054,059.80"}, {"measurement": "Observed EIC Areas NOR-4OH (288.1230 m/z)", "setting": "[3]", "value": "242,876.32 and 139,427.97 and 249,690.78"}, {"measurement": "Observed EIC Areas NRT-2OH (316.1543 m/z)", "setting": "[3]", "value": "639,571.41 and 488,824.56 and 684,700.15"}, {"measurement": "Observed EIC Areas THP-0OH (344.1856 m/z)", "setting": "[3]", "value": "10,694,641.10 and 11,406,507.42 and 10,304,271.54"}]}
{"molecule": "Gen1: evolved GfOMT1 O-methyltransferase variant, first round of evolution (protein) MGVSDNKPESQEVDIKAQAHLWNIIYGFADSLVLRCAVEIGIADIIKSNNGSISVTELASKLPITNVNSDNLYRVLRYLVHMGILKEVSDSNEVKLYSLQPVATLLLRDAERSMVPIILGMTQKDFMIPWHFMKEGLGNDTTAFERGMGMTIWQYLEGHPEQSNLFNEGMAGETRLLAKSLIDGCRDTFEGLTSLCDVGGGNGTTIKGIYDAFPQIKCSVYDLPHVIASSPEHPNIERIPGDMFKSVPSAQAILLKLILHDWTDEECVNILIKCREAVPKDTGKVIIVDVALEEESQHELTKTRLILDIDMLVNTGGRERSEDDWEKLLKRAGFRGHKIRHIAAIQSVIEAFP", "values": [{"measurement": "Observed EIC Areas 3OH (302.1387 m/z)", "setting": "[3]", "value": "262,284.74 and 357,195.05 and 194,528.60"}, {"measurement": "Observed EIC Areas 1OH (330.1700 m/z)", "setting": "[3]", "value": 0.00}, {"measurement": "Observed EIC Areas NOR-4OH (288.1230 m/z)", "setting": "[3]", "value": "127,968.53 and 189,597.68 and 69,624.59"}, {"measurement": "Observed EIC Areas NRT-2OH (316.1543 m/z)", "setting": "[3]", "value": "5,028,466.49 and 5,328,381.15 and 4,578,048.19"}, {"measurement": "Observed EIC Areas THP-0OH (344.1856 m/z)", "setting": "[3]", "value": "662,206.48 and 685,462.09 and 627,833.84"}]}
{"molecule": "Gen2: evolved GfOMT1 variant, second round, in which the W22L mutation occurred (protein) MGVSDNKPESQEVDIKAQAHLLNIIYGFADSLVLRCAVEIGIADIIKSNNGSISVTELASKLPITNVNSDNLYRVLRYLVHMGILKEVSDSNEVKLYSLQPVATLLLRDAERSMVPIILGMTQKDFMIPWHFMKEGLGNDTTAFERGMGMTIWQYLEGHPEQSNLFNEGMAGETRLLAKSLIDGCRDTFEGLTSLCDVGGGNGTTIKGIYDAFPQIKCSVYDLPHVIASSPEHPNIERIPGDMFKSVPSAQAILLKLILHDWTDEECVNILIKCREAVPKDTGKVIIVDVALEEESQHELTKTRLILDIDMLVNTGGRERSEDDWEKLLKRAGFRGHKIRHIAAIQSVIEAFP", "values": [{"measurement": "Observed EIC Areas 3OH (302.1387 m/z)", "setting": "[3]", "value": "730,076.27 and 485,465.06 and 582,826.88"}, {"measurement": "Observed EIC Areas 1OH (330.1700 m/z)", "setting": "[3]", "value": "4,013,082.04 and 4,748,195.68 and 4,367,581.54"}, {"measurement": "Observed EIC Areas NOR-4OH (288.1230 m/z)", "setting": "[3]", "value": "641,245.71 and 251,793.95 and 457,481.05"}, {"measurement": "Observed EIC Areas NRT-2OH (316.1543 m/z)", "setting": "[3]", "value": "2,721,068.90 and 1,499,029.94 and 2,227,163.03"}, {"measurement": "Observed EIC Areas THP-0OH (344.1856 m/z)", "setting": "[3]", "value": "768,144.56 and 825,357.07 and 796,201.94"}]}
